The results in this text go back to patent US20240182953, “METHODS AND COMPOSITIONS FOR DETECTING A TARGET RNA” (The Regents of the University of California, published 2024).

Numbering of substitutions follows the chain as printed.

One data set deals with T1, LbuC2c2-dHEPN1/dHEPN2 (Leptotrichia buccalis, UniProt C7NBY4 SEQ:1-1159, R472A,H477A,R1048A,H1053A).
T1 sequence: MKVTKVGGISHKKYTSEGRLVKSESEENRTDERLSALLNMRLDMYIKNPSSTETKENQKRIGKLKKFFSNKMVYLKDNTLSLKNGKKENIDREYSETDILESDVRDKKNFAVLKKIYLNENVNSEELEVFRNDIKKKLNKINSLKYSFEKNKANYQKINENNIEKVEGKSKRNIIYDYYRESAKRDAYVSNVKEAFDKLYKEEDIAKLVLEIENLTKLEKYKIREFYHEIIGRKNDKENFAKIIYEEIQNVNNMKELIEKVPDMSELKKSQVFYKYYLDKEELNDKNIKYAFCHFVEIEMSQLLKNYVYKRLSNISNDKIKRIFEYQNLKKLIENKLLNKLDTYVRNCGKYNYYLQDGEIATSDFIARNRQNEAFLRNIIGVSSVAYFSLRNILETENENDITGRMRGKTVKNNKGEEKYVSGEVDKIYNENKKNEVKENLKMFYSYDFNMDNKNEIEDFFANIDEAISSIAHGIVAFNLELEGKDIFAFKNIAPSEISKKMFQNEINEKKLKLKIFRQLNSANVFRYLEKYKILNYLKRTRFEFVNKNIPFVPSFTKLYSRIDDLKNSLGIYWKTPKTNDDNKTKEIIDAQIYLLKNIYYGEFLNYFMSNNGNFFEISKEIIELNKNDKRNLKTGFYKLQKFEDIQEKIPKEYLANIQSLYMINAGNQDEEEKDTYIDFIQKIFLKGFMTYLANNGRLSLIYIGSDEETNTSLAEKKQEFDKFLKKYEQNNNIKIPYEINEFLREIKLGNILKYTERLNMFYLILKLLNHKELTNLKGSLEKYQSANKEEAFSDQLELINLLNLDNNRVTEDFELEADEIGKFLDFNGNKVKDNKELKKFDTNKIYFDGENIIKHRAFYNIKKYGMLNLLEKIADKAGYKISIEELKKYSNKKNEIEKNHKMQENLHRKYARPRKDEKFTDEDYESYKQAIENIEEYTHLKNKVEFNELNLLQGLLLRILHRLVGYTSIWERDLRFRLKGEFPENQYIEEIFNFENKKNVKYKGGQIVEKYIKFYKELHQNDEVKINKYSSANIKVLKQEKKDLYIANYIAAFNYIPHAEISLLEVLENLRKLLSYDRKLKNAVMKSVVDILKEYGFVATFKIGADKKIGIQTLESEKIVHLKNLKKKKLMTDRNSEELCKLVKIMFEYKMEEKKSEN
In words: EMSA; ssRNA A, no Mg listed in EMSA buffer, 37 C; which A variant was used not stated. The note with it: tags: His6-MBP removed by TEV, label: 5'-32P, hairpin. Here is the method: (§1) The quantified data were fit to standard binding isotherms. Error bars represent the standard deviation from three independent experiments. […] Three independent experiments were conducted as described in the Methods. The gel was cropped for clarity. c, Quantified binding data from (b) were fitted to standard binding […]. Error bars represent the standard deviation from three independent experiments. […] The quantified data were fit to standard binding isotherms. Error bars represent the standard deviation from three independent experiments. Measured dissociation constants from three independent experiments (mean±sd) were 4.65±0.6 nM (LbuC2c2-WT) and 2.52±0.5 nM (LbuC2c2-R1079A). It is of note that these binding affinities differ from panel a. This difference is accounted for in a slight difference in the 5′ sequence of the guide with panel a guides beginning with a 5′-GGCCA . . . and panel d 5′-GACCA. While the native sequence guide (5′-GACCA) binds tighter to LbuC2c2, no difference is seen in the RNA targeting efficiencies of these guide variants (Extended Data FIG. 6c).
Electrophoretic mobility-shift assays. […]
A general note: Mobility shift assays separate free from complexed probe on a gel.

For the next data set, the target named is T2, LbuC2c2-R1079A (Leptotrichia buccalis, UniProt C7NBY4 SEQ:1-1159, R1079A).
T2 sequence: T1 sequence with A472R, A477H, A1048R, A1053H, R1079A
In words: filter; retains crRNA binding; Kd in truncated legend. The note with it: tags: His6-MBP removed by TEV; label: 5'-32P; hairpin. As for the experimental part:
as §1
crRNA filter-binding assays. Filter binding assays was carried out in RNA processing buffer (20 mM HEPES pH 6.8, 50 mM KCl, 5 mM MgCl₂, […], 0.01% Igepal CA-630 and 5% glycerol). LbuC2c2 was incubated with radiolabeled crRNA (<0.1 nM) for 1 hr at 37° C. […]

B1: crRNA-A_GG (mature) ; target A ssRNA (ssRNA ; ssRNA)
RNA 1: GGCCACCCCAAAAAUGAAGGGGACUAAAACAGGGGCAGAGAUGAUGACCCU
RNA 2: GGCUCAUUUGCAGGGUUUAGCCAAAAGGGUCAUCAUCUCUGCCCCCUCUGCUGAUGCCCC
In turn, B1 gave a dissociation constant Kd in the data set with LbuC2c2-dHEPN1/dHEPN2 of 1.62 nM.

B2: crRNA-A_GA (mature) (ssRNA)
RNA: B1 RNA 1 with G2A
On to B2, for which the binding result with LbuC2c2-R1079A is “binds”.

Usually Kd stands for the constant that tells how readily two partners part at equilibrium. Read a high Kd as a looser complex.
